Biological target: the molecule itself
Assay: SEC-MALS; Superose 6 increase 10/300 GL, room temperature, running buffer 50 mM Tris-HCl (pH 7.5), 250 mM NaCl, flow rate 0.4 mL/minute; MiniDAWN Treos

B1: TetR-family regulator Sco4385 (His-tagged) (natural protein, Streptomyces coelicolor M512, UniProt Q9K3V9 1-202, looked up)
chain: MNAADRTERVPKQDRSRATRQRLLEAAVACLAERGWAGSTVSVVAEHAGVSRGAAQHHFPTREDLFTAAVEYVAEERSIALRALFPEGAAADDRRAVVAALVDLYTGPLFRAALHLWVAASNEEQLRGRVTELEARVGRESHRIAVELLGADETRPGARETVQGLLDMARGLGLANLLTDDGARRERVVEQWARLLDAALAQ
notes: TetR-family regulator Sco4385 of Streptomyces coelicolor M512; Expressed from the vector pHis8 (plasmid pSW21); No tag cleavage is described; also called TFR Sco4385; TetR-type regulator Sco4385; source: E. coli BL21 DE3, purified (Ni-NTA chromatography, size exclusion chromatography)
**Q.** For B1, which “stoichiometry N” value is on record?
**A.** The value was 2.

Source: PMC12093943, “The TetR-like regulator Sco4385 and Crp-like regulator Sco3571 modulate heterologous production of antibiotics in Streptomyces coelicolor M512” (Applied and Environmental Microbiology, 2025)
